B1: COMT (protein, UniProt P21964 1-271, looked up)
Catechol O-methyltransferase: MPEAPPLLLAAVLLGLVLLVVLLLLLRHWGWGLCLIGWNEFILQPIHNLLMGDTKEQRILNHVLQHAEPGNAQSVLEAIDTYCEQKEWAMNVGDKKGKIVDAVIQEHQPSVLLELGAYCGYSAVRMARLLSPGARLITIEINPDCAAITQRMVDFAGVKDKVTLVVGASQDIIPQLKKKYDVDTLDMVFLDHWKDRYLPDTLLLEECGLLRKGTVLLADNVICPGAPDFLAHVRGSSCFECTHYQSFLEYREVVDGLEKAIYKGPGSEAGP
B2: CD69 (protein, UniProt Q07108 1-199, looked up)
Early activation antigen CD69: MSSENCFVAENSSLHPESGQENDATSPHFSTRHEGSFQVPVLCAVMNVVFITILIIALIALSVGQYNCPGQYTFSMPSDSHVSSCSEDWVGYQRKCYFISTVKRSWTSAQNACSEHGATLAVIDSEKDMNFLKRYAGREEHWVGLKKEPGHPWKWSNGKEFNNWFNVTGSDKCVFLKNTEVSSMECEKNLYWICNKPYK
B3: RETN (protein, UniProt Q9HD89 19-108, looked up)
Resistin: KTLCSMEEAINERIQEVAGSLIFRAISSIGLECQSVTSRGDLATCPRGFAVTGCTCGSACGSWDVRAETTCHCQCAGMDWTGARCCRVQP
B4: BCR (protein, UniProt P11274 1-1271, looked up)
Breakpoint cluster region …: MVDPVGFAEAWKAQFPDSEPPRMELRSVGDIEQELERCKASIRRLEQEVNQERFRMIYLQTLLAKEKKSYDRQRWGFRRAAQAPDGASEPRASASRPQPAPADGADPPPAEEPEARPDGEGSPGKARPGTARRPGAAASGERDDRGPPASVAALRSNFERIRKGHGQPGADAEKPFYVNVEFHHERGLVKVNDKEVSDRISSLGSQAMQMERKKSQHGAGSSVGDASRPPYRGRSSESSCGVDGDYEDAELNPRFLKDNLIDANGGSRPPWPPLEYQPYQSIYVGGMMEGEGKGPLLRSQSTSEQEKRLTWPRRSYSPRSFEDCGGGYTPDCSSNENLTSSEEDFSSGQSSRVSPSPTTYRMFRDKSRSPSQNSQQSFDSSSPPTPQCHKRHRHCPVVVSEATIVGVRKTGQIWPNDGEGAFHGDADGSFGTPPGYGCAADRAEEQRRHQDGLPYIDDSPSSSPHLSSKGRGSRDALVSGALESTKASELDLEKGLEMRKWVLSGILASEETYLSHLEALLLPMKPLKAAATTSQPVLTSQQIETIFFKVPELYEIHKEFYDGLFPRVQQWSHQQRVGDLFQKLASQLGVYRAFVDNYGVAMEMAEKCCQANAQFAEISENLRARSNKDAKDPTTKNSLETLLYKPVDRVTRSTLVLHDLLKHTPASHPDHPLLQDALRISQNFLSSINEEITPRRQSMTVKKGEHRQLLKDSFMVELVEGARKLRHVFLFTDLLLCTKLKKQSGGKTQQYDCKWYIPLTDLSFQMVDELEAVPNIPLVPDEELDALKIKISQIKNDIQREKRANKGSKATERLKKKLSEQESLLLLMSPSMAFRVHSRNGKSYTFLISSDYERAEWRENIREQQKKCFRSFSLTSVELQMLTNSCVKLQTVHSIPLTINKEDDESPGLYGFLNVIVHSATGFKQSSNLYCTLEVDSFGYFVNKAKTRVYRDTAEPNWNEEFEIELEGSQTLRILCYEKCYNKTKIPKEDGESTDRLMGKGQVQLDPQALQDRDWQRTVIAMNGIEVKLSVKFNSREFSLKRMPSRKQTGVFGVKIAVVTKRERSKVPYIVRQCVEEIERRGMEEVGIYRVSGVATDIQALKAAFDVNNKDVSVMMSEMDVNAIAGTLKLYFRELPEPLFTDEFYPNFAEGIALSDPVAKESCMLNLLLSLPEANLLTFLFLLDHLKRVAEKEAVNKMSLHNLATVFGPTLLRPSEKESKLPANPSQPITMTDSWSLEVMSQVQVLLYFLQLEAIPAPDSKRQSILFSTEV
B5: PAR-1 (protein, UniProt P25116 42-425, looked up)
Proteinase-activated receptor …: SFLLRNPNDKYEPFWEDEEKNESGLTEYRLVSINKSSPLQKQLPAFISEDASGYLTSSWLTLFVPSVYTGVFVVSLPLNIMAIVVFILKMKVKKPAVVYMLHLATADVLFVSVLPFKISYYFSGSDWQFGSELCRFVTAAFYCNMYASILLMTVISIDRFLAVVYPMQSLSWRTLGRASFTCLAIWALAIAGVVPLLLKEQTIQVPGLNITTCHDVLNETLLEGYYAYYFSAFSAVFFFVPLIISTVCYVSIIRCLSSSAVANRSKKSRALFLSAAVFCIFIICFGPTNVLLIAHYSFLSHTSTTEAAYFAYLLCVCVSSISCCIDPLIYYYASSECQRYVYSILCCKESSDPSSYNSSGQLMASKMDTCSSNLNNSIYKKLLT
B6: WASF1 (protein, UniProt Q92558 1-559, looked up)
Actin-binding protein WASF1: MPLVKRNIDPRHLCHTALPRGIKNELECVTNISLANIIRQLSSLSKYAEDIFGELFNEAHSFSFRVNSLQERVDRLSVSVTQLDPKEEELSLQDITMRKAFRSSTIQDQQLFDRKTLPIPLQETYDVCEQPPPLNILTPYRDDGKEGLKFYTNPSYFFDLWKEKMLQDTEDKRKEKRKQKQKNLDRPHEPEKVPRAPHDRRREWQKLAQGPELAEDDANLLHKHIEVANGPASHFETRPQTYVDHMDGSYSLSALPFSQMSELLTRAEERVLVRPHEPPPPPPMHGAGDAKPIPTCISSATGLIENRPQSPATGRTPVFVSPTPPPPPPPLPSALSTSSLRASMTSTPPPPVPPPPPPPATALQAPAVPPPPAPLQIAPGVLHPAPPPIAPPLVQPSPPVARAAPVCETVPVHPLPQGEVQGLPPPPPPPPLPPPGIRPSSPVTVTALAHPPSGLHPTPSTAPGPHVPLMPPSPPSQVIPASEPKRHPSTLPVISDARSVLLEAIRKGIQLRKVEEQREQEAKHERIENDVATILSRRIAVEYSDSEDDSEFDEVDWLE
B7: SH2D1A (protein, UniProt O60880 1-128, looked up)
SH2 domain-containing protein …: MDAVAVYHGKISRETGEKLLLATGLDGSYLLRDSESVPGVYCLCVLYHGYIYTYRVSQTETGSWSAETAPGVHKRYFRKIKNLISAFQKPDQGIVIPLQYPVEKKSSARSTQGTTGIREDPDVCLKAP
B8: CCL25 (protein, UniProt O15444 24-150, looked up)
C-C motif chemokine 25: QGVFEDCCLAYHYPIGWAVLRRAWTYRIQEVSGSCNLPAAIFYLPKRHRKVCGNPKSREVQRAMKLLDARNKVFAKLHHNTQTFQAGPHAVKKLSSGNSKLSSSKFSNPISSSKRNVSLLISANSGL
B9: WAS (protein, UniProt P42768 2-502, looked up)
Actin nucleation-promoting …: SGGPMGGRPGGRGAPAVQQNIPSTLLQDHENQRLFEMLGRKCLTLATAVVQLYLALPPGAEHWTKEHCGAVCFVKDNPQKSYFIRLYGLQAGRLLWEQELYSQLVYSTPTPFFHTFAGDDCQAGLNFADEDEAQAFRALVQEKIQKRNQRQSGDRRQLPPPPTPANEERRGGLPPLPLHPGGDQGGPPVGPLSLGLATVDIQNPDITSSRYRGLPAPGPSPADKKRSGKKKISKADIGAPSGFKHVSHVGWDPQNGFDVNNLDPDLRSLFSRAGISEAQLTDAETSKLIYDFIEDQGGLEAVRQEMRRQEPLPPPPPPSRGGNQLPRPPIVGGNKGRSGPLPPVPLGIAPPPPTPRGPPPPGRGGPPPPPPPATGRSGPLPPPPPGAGGPPMPPPPPPPPPPPSSGNGPAPPPLPPALVPAGGLAPGGGRGALLDQIRQGIQLNKTPGAPESSALQPPPQSSEGLVGALMHVMQKRSRAIHSSDEGEDQAGDEDEDDEWDD
B10: RNASE3 (protein, UniProt P12724 28-160, looked up)
Eosinophil cationic protein: RPPQFTRAQWFAIQHISLNPPRCTIAMRAINNYRWRCKNQNTFLRTTFANVVNVCGNQSIRCPHNRTLNNCHRSRFRVPLLHCDLINPGAQNISNCTYADRPGRRFYVVACDNRDPRDSPRYPVVPVHLDTTI

These molecules were tested on plasma proteins (assay: Plasma proteins modulated between baseline and day 28 in responders (CR, VGPR, PR; n = 19), Example 6 (Table 13)). Details: plasma protein (OLINK NPX); responders (CR, VGPR, PR; n = 19); itacitinib 200 mg or 300 mg QD with corticosteroids; day 28 vs baseline.
Assay type: in vivo, human
Procedure, shortened: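 Longitudinal comparison, day 28 versus baseline, with steroid-naive (N=10) and steroid-refractory (N=18) patients combined. Proteins measured by OLINK proximity extension, log2 normalized protein expression. Differences tested by t tests, ANOVA, Pearson correlation, P<0.05 significant.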

Row | Molecule | Fold Change, Decreased Expression from Baseline to Day 28 | Fold Change, Increased Expression from Baseline to Day 28
1 | B1 | −1.4304 | –
2 | B2 | −1.7621 | –
3 | B3 | −1.8687 | –
4 | B4 | −1.8219 | –
5 | B5 | −1.2074 | –
6 | B6 | −1.5354 | –
7 | B7 | −1.1574 | –
8 | B8 | – | 2.106
9 | B9 | −2.133 | –
10 | B10 | −2.6612 | –

From patent publication US12099068B2, “Biomarkers for graft-versus-host disease” (Incyte Corporation, priority 2018, dated 2024)
